Results on 5 molecules are retold here after patent publication US10442866 (BEIJING MABWORKS BIOTECH, dated 2019).

In assay [1] the target is T1, recombinant rhesus OX40-his (Sino Biological, Cat#:90846-C08H) (rhesus monkey, UniProt P43489 29-214 (human entry)).
T1 construct: bought protein; also called monkey OX40-his; rhOX40-his; not shown: His tag
T1 chain: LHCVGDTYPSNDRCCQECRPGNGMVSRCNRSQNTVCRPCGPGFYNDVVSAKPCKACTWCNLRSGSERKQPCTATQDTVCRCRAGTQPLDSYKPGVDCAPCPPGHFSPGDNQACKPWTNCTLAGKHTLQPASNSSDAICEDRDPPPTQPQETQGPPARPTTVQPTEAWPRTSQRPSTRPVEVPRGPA
The experiment in a line: ELISA, coated rhOX40-his. As to the method: (§1) ELISA plates were coated with 500 ng/ml human OX40-his (used in Example 2) at 4° C. overnight. The wells were blocked with 200 µl of blocking buffer (PBS containing 1% BSA, 1% goat serum, 0.05% Tween 20) for 2 hours at room temperature, and then 100 µl of serially diluted anti-OX40 antibodies (starting from 40 µg/ml) were added to each well and incubated for 1 hour at RT. Plates were washed for 3 times with PBST (PBS+0.05% Tween 20), added with Goat-anti-mouse IgG-HRP (Simga, US, Cat#: A9309-1 ml) diluted 5000×, and incubated for 1 hour at RT. Plates were developed with freshly prepared Ultra-TMB (BD, US, Cat#: 555214) for 5 minutes at RT. Absorbance was read on a SpectraMax® i3× (Molecular Devies, US) at 450 nm.
Species-cross-reactivity of the 33 OX40 mAbs to monkey or mouse OX40 was further assessed by direct ELISA. Briefly, 500 ng/ml monkey OX40-his or mouse OX40-his (used in Example 2) was coated on 96-well ELISA plates followed by incubation with 100 µl of serially diluted anti-OX40 antibodies (starting from 40 µg/ml). Goat anti-mouse IgG (Sigma, US, Cat#:A9309-1 ml) conjugated with HRP was used then.
For orientation: An ELISA detects its analyte on a solid surface through an enzyme-linked reagent.

For assay [2], the target named is T2, recombinant human OX40-his (Sino Biological, Cat#:10481-H03H) (human, UniProt P43489 29-214).
T2 construct: bought protein; also called hOX40-his; not shown: His tag
T2 sequence: T1 chain with Q16H, N29S, A50S, A55P, P70L, P145A, T159I, R173G, R183G, P185R
The experiment in a line: ELISA, coated hOX40-his. As to the method:
as §1

Assay [3] concerns the target T3, rhesus OX40 expressed on HEK293A cells (rhesus, UniProt P43489 29-277 (human entry)).
T3 construct: also called HEK293A/rhOX40; HEK293A/rhesusOX40 cells
T3 chain: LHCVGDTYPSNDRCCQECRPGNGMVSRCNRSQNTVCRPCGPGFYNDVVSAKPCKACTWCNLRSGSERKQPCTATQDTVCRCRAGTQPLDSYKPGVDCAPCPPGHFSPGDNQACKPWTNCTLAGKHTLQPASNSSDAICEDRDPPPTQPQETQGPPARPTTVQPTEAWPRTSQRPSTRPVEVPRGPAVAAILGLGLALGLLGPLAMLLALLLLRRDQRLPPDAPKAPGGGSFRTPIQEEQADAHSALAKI
As to the kind of experiment: FACS on HEK293A cells. As to the method: (§2) Briefly, 10^5 HEK293A cells were seeded into each well of the 96-well plates and serially diluted anti-OX40 antibodies were added to the plates. After incubated at 4° C. for 1 hour, plates were washed 3 times with PBST. Then, an APC coupled Goat Anti-Mouse IgG (BioLegen, US, Cat#: 405308) diluted 500× was added to the plates. After incubation at 4° C. for 1 hour, the plates were washed with PBS for 3 times and then cell fluorescence was monitored using a FACS machine (BD).

Assay [4] deals with T4, human OX40 expressed on HEK293A cells (human, UniProt P43489 29-277).
T4 construct: also called HEK293A/huOX40; HEK293A/human OX40 cells
T4 sequence: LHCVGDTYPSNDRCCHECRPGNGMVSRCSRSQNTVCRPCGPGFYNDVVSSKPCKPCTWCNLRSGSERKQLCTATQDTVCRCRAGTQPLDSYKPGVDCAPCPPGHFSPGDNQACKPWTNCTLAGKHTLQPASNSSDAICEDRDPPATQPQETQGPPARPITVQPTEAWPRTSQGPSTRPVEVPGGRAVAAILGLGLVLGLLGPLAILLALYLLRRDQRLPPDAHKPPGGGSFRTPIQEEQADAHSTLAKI
As to the kind of experiment: FACS on HEK293A cells. How it is done:
as §2

Assay [5] addresses T5, murine OX40-His (Crown, Cat#: E3350-B1707) (mouse, UniProt P47741 20-211).
T5 construct: bought protein; also called mouse OX40-his; muOX40-his; not shown: His tag
T5 sequence: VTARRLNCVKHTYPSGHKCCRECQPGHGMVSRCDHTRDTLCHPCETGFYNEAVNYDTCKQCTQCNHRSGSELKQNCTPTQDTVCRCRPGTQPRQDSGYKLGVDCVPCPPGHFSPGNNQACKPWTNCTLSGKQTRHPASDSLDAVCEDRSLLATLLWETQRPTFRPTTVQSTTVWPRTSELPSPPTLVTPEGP
As to the kind of experiment: ELISA, coated muOX40-his.

The target of assay [6] is T6, mouse OX40 expressed on HEK293A cells (mouse, UniProt P47741 20-272).
T6 construct: also called HEK293A/muOX40; HEK293A/mouseOX40 cells
T6 sequence: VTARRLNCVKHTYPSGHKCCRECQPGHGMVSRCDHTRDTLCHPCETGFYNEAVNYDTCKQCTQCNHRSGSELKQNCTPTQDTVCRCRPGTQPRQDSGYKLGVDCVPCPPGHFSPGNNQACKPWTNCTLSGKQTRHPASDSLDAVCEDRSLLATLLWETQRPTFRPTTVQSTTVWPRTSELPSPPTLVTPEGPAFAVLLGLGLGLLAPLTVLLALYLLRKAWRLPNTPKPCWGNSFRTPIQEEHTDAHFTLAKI
The experiment in a line: FACS on HEK293A/muOX40 cells. How it is done:
as §2

Assay [7] addresses T7, human OX40-CD40 fusion protein on HEK-Blue reporter cells (human).
T7 chain: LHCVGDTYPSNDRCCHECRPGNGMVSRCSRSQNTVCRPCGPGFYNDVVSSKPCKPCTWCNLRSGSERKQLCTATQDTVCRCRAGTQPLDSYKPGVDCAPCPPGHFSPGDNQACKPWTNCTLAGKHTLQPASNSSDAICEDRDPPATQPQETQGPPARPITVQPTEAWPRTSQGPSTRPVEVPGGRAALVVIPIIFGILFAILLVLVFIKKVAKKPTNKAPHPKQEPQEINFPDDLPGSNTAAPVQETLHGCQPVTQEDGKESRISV
As to the kind of experiment: cell-based or functional assay.

The target of assay [8] is T4, human OX40 expressed on HEK293A cells. As to the kind of experiment: FACS on HEK293A/huOX40 cells.
Assay [9] addresses T5, murine OX40-His (Crown, Cat#: …). The experiment in a line: ELISA on coated mouse OX40-His, OD450.
Assay [10] addresses T3, rhesus OX40 expressed on HEK293A cells. As to the kind of experiment: FACS on HEK293A/rhOX40 cells.
The target in assay [11] is T1, recombinant rhesus OX40-his (Sino …). As to the kind of experiment: ELISA on coated rhesus OX40-His, OD450.
For assay [12], the target named is T2, recombinant human OX40-his (Sino …). The experiment in a line: SPR Biacore 8K, OX40-His on chip, antibody injected. As to the method:
SPR assays were used to determine the binding affinity of the chimetic or humanized anti-OX40 antibodies to human OX40 with the BIAcore™ 8K instrument (GE Life Sciences). Briefly, 100-200 response units (RU) of human OX40-His protein (Sino Biological, CN, Cat#:10481-H03H, Lot no.: MA08MA3003) were coupled to CM5 biosensor chips (Cat#: BR-1005-30, GE Life Sciences), followed by blocking of un-reacted groups with 1M ethanolamine. Serially diluted antibodies at concentrations ranging from 0.3 µM to 10 µM were injected into the SPR running buffer (HBS-EP buffer, pH7.4, GE Life Sciences; US; Cat#:BR-1006-69) at 30 µL/minute. The binding capacitity was calculated with the RUs of blank controls subtracted. The association rate (k_a) and dissociation rate (k_d) were calculated using the one-to-one Langmuir binding model (BIA Evaluation Software, GE Life Sciences). The equilibrium dissociation constant K_D was calculated as the k_d/k_a ratio.
(In general: In SPR one partner is held on a chip, and binding of the other changes the refractive index at the surface.)

The target is the same in assay [13]. The experiment in a line: ELISA on coated human OX40-His, OD450.
Assay [14] has as its target T5, murine OX40-His (Crown, Cat#: …). As to the kind of experiment: ELISA on coated mouse OX40-His, OD450. The source holds these as a separate data set.

Residue numbers refer to the chain shown, from its start.

For orientation: EC50 means the concentration giving half of the maximal effect. One may read the EC50 (read off the curve) as the concentration at which the effect is half-maximal. The Kd is the constant that tells how readily two partners part at equilibrium. As a reminder, the koff is a measure of how fast the partners let go of each other. As a reminder, the kon is the rate constant with which the complex forms.

B1: 68C8 (murine monoclonal antibody) (antibody, V domains shown)
VH: QVQLQQSGAELVKPGASVKMSCKASGDTFTSYWITWVKQRPGQGLEWIGDIHPGSGSTNNNEKFKNKATLTVDTSSSTAYMQLSSLTSEDSAVYYCAKLRPYYFVYWGQGTTLTVSS
VL: DIQMTQTTSSLSASLGDRVTISCRASQDISNYLNWYQQKPDGTVKLLIYYTSRLLSGVPSRFSGSGSGTDYSLTISNLEQEDIATYFCQQGNTLPLTFGAGTRLELK
In the case of B1, the EC50 in assay [1] was determined as 0.06 µg/mL; in assay [2], 0.0483 µg/mL; in assay [3], 0.095 µg/mL; in assay [4], 0.113 µg/mL. Also, the values for the binding result in assay [5] and in [6] were “no binding (tested: serial dilution from 40 µg/ml)” and “no binding”, respectively. The “EC50, agonistic activity in HEK-Blue assay” value (“EC50, agonistic activity” for short) in assay [7] was found to be 0.0866 µg/mL.

B2: chimeric antibody 71H8 (antibody, human IgG1, kappa, V domains shown)
VH: B1 VH with D27Y, H52Y, N60Q, N66S
VL: DIQMTQTPSSLSASLGDRVTISCRASQDISNYLNWYQQKPDGTVKLLIYYTSRLLSGVPSRFSGSGSGTDYSLTISNLEQEDIATYFCQQGNTLPLTFGAGTKLELKR
notes: mouse variable regions with human IgG1/kappa constant regions
Regarding B2, the EC50 in assay [8] came out at 0.144 µg/mL; in assay [10], 0.151 µg/mL. The binding result in assay [9] was “no binding (tested: 10000 ng/ml (log 4))”. In addition, the “EC50 (read off the curve)” value in assay [11] and in [13] was roughly 0.003 µg/mL each time. The Kd in [12] is 0.158 nM. Further, the koff in [12] is 8.28e-05 s⁻¹. Besides, in [12], the kon came to 525000 M⁻¹ s⁻¹.

B3: 71H8 (murine monoclonal antibody) (antibody, V domains shown)
VH: B1 VH with D27Y, H52Y, N60Q, N66S
VL: B1 VL with T8P, R103K
Turning to B3, the EC50 in assay [1] amounted to 0.0501 µg/mL; in assay [2] it was 0.052 µg/mL; in assay [3], 0.126 µg/mL; in [4] it was 0.113 µg/mL. Besides, the binding result in assay [5] is given as “no binding (tested: serial dilution from 40 µg/ml)”; in assay [6] it was “no binding”. Also, in assay [7], the “EC50, agonistic activity” value was found to be 0.0494 µg/mL.

B4: chimeric antibody 68C8 (antibody, human IgG1, kappa, V domains shown)
VH: B1 VH
VL: B2 VL with P8T, K103R
notes: as for B2
In [8], B4 came in with an EC50 of 0.134 µg/mL. In assay [10], this molecule showed an EC50 of 0.0806 µg/mL. In addition, the binding result in [14] is recorded as “no binding (tested: 10000 ng/ml (log 4))”. In [12], the Kd is 0.187 nM, the koff worked out at 7.35e-05 s⁻¹ and the kon was 393000 M⁻¹ s⁻¹.

B5: 6A12 (murine monoclonal antibody) (antibody, V domains shown)
VH: QVQLQQSGPELVKPGASVKISCKASGYAFSSSWMNWVKQRPGKGLEWIGRIYPGDGITNYNGNFKGKATLTADKSSSTAYMQLSGLTSADSAVYFCAREFIPLGWGTGTTVTVSS
VL: DIVMTQTPFSNPVTLGTSASISCRSSKSLLHSNGITYLYWYLQKPGQSPQLLIYQMSNLASGVPDRFSSSGSGTDFTLRISRVEAEDVGVYYCAQNLELPWTFGGGTKLEIK
In the case of B5, the half-maximal effective concentration (EC50) turned out to be 0.05 µg/mL in assay [1], 0.0415 µg/mL in assay [2], 0.253 µg/mL in assay [3] and 0.406 µg/mL in assay [4]. For the same molecule, the results for the binding result in [5] and in assay [6] were “no binding (tested: serial dilution from 40 µg/ml)” and “no binding”, respectively. Also, the “EC50, agonistic activity” value in [7] turned out to be 0.274 µg/mL.
